Source: patent publication US20180179276A1 (NEURIMMUNE, published 2018)

Biological target: pathological Aβ deposits in a human brain with Alzheimer's disease (human, UniProt P05067 672-713)
Test: not described (human Alzheimer brain tissue)

Chain of pathological Aβ deposits in a human brain with Alzheimer's disease (P05067 672-713): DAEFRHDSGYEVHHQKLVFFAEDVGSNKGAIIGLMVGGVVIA

binding result: no binding
B1: antibody NI-203.26C11 (constant region as tested not stated) (antibody, V domains shown)
VH: QVQLQESGPGLVKPSQTLSLTCTVSGGSISSGNYYWTWIRQPAGKGLEWIGHIYSSGTTNYNPSLESRVTISVDTSKNQFSLSLNSVTAADTAVYYCARPLATVPDAFNIWGQGTMVTVSS
VL: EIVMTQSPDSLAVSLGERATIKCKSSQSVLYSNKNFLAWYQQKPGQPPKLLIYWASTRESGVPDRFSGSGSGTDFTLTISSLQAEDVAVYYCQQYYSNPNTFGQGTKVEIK
notes: also called anti-hIAPP antibody
